# Experimental data published in patent publication US20070032419A1 (ONCOSCIENCE, published 2007).
# Substitutions are numbered along the chain they refer to.
# T1: tTF-GALNGRSHAG fusion polypeptide
# T1 chain: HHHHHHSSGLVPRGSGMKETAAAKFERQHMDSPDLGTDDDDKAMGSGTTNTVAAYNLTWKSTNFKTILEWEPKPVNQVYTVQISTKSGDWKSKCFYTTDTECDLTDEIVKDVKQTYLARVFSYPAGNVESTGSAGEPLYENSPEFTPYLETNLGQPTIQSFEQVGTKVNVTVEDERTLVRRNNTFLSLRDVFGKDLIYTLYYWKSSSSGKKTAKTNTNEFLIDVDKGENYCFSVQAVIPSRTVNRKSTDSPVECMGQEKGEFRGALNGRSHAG
# T2: tTF-GCVLNGRMEC fusion polypeptide
# T2 chain: T1 chain with A265C, L266V, N267L, G268N, R269G, S270R, H271M, A272E, G273C
# T3: truncated human tissue factor tTF1-218
# T3 chain: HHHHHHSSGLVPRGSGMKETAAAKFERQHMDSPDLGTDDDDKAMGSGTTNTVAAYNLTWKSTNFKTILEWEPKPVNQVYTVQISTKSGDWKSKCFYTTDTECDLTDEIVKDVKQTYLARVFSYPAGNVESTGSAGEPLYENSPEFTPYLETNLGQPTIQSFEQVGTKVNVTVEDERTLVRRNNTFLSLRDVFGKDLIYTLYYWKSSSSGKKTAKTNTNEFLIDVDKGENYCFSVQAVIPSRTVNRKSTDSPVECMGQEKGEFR
# T4: tTF-GCNGRCG fusion polypeptide
# T4 chain: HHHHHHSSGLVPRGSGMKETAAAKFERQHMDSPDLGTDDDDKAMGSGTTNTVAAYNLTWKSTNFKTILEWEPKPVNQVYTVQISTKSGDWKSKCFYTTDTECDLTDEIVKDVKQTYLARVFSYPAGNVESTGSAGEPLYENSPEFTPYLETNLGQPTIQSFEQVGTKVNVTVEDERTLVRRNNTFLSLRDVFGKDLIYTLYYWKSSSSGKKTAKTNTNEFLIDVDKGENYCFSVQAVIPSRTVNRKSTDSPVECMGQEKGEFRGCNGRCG
# T5: tTF-GCNGRCVSGCAGRC fusion polypeptide
# T5 chain: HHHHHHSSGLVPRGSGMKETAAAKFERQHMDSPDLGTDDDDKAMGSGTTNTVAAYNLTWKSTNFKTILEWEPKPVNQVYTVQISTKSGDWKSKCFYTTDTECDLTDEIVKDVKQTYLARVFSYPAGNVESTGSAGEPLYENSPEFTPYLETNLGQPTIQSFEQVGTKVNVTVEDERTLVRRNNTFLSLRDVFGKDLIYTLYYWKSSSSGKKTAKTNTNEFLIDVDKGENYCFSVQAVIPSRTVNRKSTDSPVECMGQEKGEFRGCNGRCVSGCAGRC
# T6: tTF-GNGRAHA fusion polypeptide with N-terminal affinity tag
# T6 chain: T4 chain with C265N, N266G, G267R, R268A, C269H, G270A
# T7: tTF-GRGDSP fusion polypeptide with N-terminal affinity tag
# T7 chain: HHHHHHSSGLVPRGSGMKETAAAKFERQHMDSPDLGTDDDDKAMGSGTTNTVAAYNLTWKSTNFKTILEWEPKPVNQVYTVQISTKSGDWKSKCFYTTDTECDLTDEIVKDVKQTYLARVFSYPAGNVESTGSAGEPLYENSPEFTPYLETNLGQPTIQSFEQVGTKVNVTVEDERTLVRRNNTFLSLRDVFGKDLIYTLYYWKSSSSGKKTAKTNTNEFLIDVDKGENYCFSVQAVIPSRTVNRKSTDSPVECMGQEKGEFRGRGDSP
# B1: recombinant factor VIIa (Novo-Nordisk) (protein)
# chain: ANAFLEELRPGSLERECKEEQCSFEEAREIFKDAERTKLFWISYSDGDQCASSPCQNGGSCKDQLQSYICFCLPAFEGRNCETHKDDQLICVNENGGCEQYCSDHTGTKRSCRCHEGYSLLADGVSCTPTVEYPCGKIPILEKRNASKPQGRIVGGKVCPKGECPWQVLLLVNGAQLCGGTLINTIWVVSAAHCFDKIKNWRNLIAVLGEHDLSEHDGDEQSRRVAQVIIPSTYVPGTTNHDIALLRLHQPVVLTDHVVPLCLPERTFSERTLAFVRFSLVSGWGQLLDRGATALELMVLNVPRLMTQDCLQQSRKVGDSPNITEYMFCAGYSDGSKDSCKGDSGGPHATHYRGTWYLTGIVSWGQGCATVGHFGVYTRVSQYIEWLQKLMRSEPRPGVLLRAPFP
# B2: tTF-GRGDSP fusion polypeptide with N-terminal affinity tag (other)
# chain: T7 chain
# notes: It was biotinylated for the FACS assay; also called tTF-RGD
# Columns and labels:
# [1] = target: T1, tTF-GALNGRSHAG fusion polypeptide
# [2] = target: the fusion polypeptides (tTF fusion polypeptides)
# [3] = target: T2, tTF-GCVLNGRMEC fusion polypeptide
# [4] = target: T3, truncated human tissue factor tTF1-218
# [5] = target: T4, tTF-GCNGRCG fusion polypeptide
# [6] = target: T5, tTF-GCNGRCVSGCAGRC fusion polypeptide
# [7] = target: T6, tTF-GNGRAHA fusion polypeptide with …
# [8] = target: T7, tTF-GRGDSP fusion polypeptide with …
# [9] = target: T8, integrin αvβ3 on cultivated human endothelial cells (human, UniProt P06756 31-1048; P05106 27-788); experiment: FACS, biotinylated protein (0.1 µM) on human endothelial cells in suspension, streptavidin-phycoerythrin detection; reference tTF
# T8 construct: whole, on cells; The cells express αvβ3 naturally; also called αvβ3 on endothelial cells
# T8 sequence (P06756 31-1048, chain 1 of 2): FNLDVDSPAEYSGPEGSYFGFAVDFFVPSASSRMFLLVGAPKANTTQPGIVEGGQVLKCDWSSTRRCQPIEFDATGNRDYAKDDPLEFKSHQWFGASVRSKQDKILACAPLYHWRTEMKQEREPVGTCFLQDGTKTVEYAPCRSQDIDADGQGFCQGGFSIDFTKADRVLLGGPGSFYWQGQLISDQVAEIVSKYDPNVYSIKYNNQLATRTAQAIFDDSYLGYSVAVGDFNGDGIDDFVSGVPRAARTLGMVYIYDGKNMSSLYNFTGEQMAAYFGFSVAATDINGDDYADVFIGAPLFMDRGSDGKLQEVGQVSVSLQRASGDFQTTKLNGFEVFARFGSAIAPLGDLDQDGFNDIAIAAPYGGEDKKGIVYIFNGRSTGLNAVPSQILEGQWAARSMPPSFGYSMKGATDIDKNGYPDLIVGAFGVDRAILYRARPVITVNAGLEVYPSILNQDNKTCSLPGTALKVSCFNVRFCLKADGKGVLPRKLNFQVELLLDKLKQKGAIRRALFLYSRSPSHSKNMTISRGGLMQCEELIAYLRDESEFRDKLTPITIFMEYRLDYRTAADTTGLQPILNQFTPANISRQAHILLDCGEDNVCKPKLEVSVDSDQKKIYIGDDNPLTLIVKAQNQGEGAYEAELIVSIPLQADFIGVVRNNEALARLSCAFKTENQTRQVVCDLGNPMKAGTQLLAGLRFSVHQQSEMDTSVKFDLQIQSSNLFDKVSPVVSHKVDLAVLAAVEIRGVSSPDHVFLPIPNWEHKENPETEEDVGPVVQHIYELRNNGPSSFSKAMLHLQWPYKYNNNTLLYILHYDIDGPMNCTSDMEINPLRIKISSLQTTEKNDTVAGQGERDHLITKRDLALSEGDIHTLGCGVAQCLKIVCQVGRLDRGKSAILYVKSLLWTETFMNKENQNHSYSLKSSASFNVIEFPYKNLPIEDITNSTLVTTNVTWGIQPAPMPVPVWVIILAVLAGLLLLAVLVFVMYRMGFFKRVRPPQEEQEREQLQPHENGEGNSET
# T8 sequence (P05106 27-788, chain 2 of 2): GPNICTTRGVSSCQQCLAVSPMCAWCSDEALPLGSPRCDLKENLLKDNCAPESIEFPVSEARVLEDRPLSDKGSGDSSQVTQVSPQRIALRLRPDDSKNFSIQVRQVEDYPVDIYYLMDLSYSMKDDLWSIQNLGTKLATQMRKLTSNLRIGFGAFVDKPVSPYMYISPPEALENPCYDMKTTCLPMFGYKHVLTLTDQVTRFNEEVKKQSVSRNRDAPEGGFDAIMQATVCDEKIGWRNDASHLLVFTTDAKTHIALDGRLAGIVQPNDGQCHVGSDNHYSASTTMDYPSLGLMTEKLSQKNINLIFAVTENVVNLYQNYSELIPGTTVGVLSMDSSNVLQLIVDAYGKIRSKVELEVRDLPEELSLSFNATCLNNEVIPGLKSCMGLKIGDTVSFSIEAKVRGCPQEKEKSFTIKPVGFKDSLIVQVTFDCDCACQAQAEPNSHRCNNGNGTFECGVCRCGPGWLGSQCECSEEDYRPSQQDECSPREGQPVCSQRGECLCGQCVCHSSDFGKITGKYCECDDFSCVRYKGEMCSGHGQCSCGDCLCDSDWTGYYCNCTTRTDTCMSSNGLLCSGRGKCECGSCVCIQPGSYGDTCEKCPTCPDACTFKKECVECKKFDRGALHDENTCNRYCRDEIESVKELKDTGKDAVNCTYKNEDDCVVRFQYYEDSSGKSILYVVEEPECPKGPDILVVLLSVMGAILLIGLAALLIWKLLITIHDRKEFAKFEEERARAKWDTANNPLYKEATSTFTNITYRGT
"fluorescence intensity, fold over tTF [9] [fold]",Binder,proteolytic activation of FX via FVIIa in the presence of phospholipids (chromogenic FXa assay) [1],Michaelis constant (Km) for activation of FX by FVIIa/tTF fusion protein [2],proteolytic activation of FX via FVIIa in the presence of phospholipids (chromogenic FXa assay) [3],proteolytic activation of FX via FVIIa in the presence of phospholipids (chromogenic FXa assay) [4],proteolytic activation of FX via FVIIa in the presence of phospholipids (chromogenic FXa assay) [5],proteolytic activation of FX via FVIIa in the presence of phospholipids (chromogenic FXa assay) [6],proteolytic activation of FX via FVIIa in the presence of phospholipids (chromogenic FXa assay) [7],proteolytic activation of FX via FVIIa in the presence of phospholipids (chromogenic FXa assay) [8]
–,B1,both tTF and the tTF fusion polypeptides are functionally active under these conditions,in the range 0.12-1.2 nM,both tTF and the tTF fusion polypeptides are functionally active under these conditions,both tTF and the tTF fusion polypeptides are functionally active under these conditions,both tTF and the tTF fusion polypeptides are functionally active under these conditions,both tTF and the tTF fusion polypeptides are functionally active under these conditions,both tTF and the tTF fusion polypeptides are functionally active under these conditions,both tTF and the tTF fusion polypeptides are functionally active under these conditions
8,B2,–,–,–,–,–,–,–,–
